Measured values: patent US20050065327A1

Tests used:
[1] = molecular target: human IL-13 (recombinant, bacterially derived, Peprotech) (human) (UniProt P35225); assay: cell-based or functional assay
[2] = molecular target: native (naturally occurring) human IL-13 released from HDLM-2 cells (human) (UniProt P35225); assay: cell-based or functional assay
native (naturally occurring) human IL-13 released from HDLM-2 cells (human), sequence (P35225 other isoform, or with tags, fused parts or gaps): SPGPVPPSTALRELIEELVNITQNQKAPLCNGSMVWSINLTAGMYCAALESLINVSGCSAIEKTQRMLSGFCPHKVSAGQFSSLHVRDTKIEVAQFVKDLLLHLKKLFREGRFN

human IL-13 (recombinant, bacterially derived, Peprotech) (human), sequence (P35225 other isoform, or with tags, fused parts or gaps): as above

Row | IC50, TF-1 cell proliferation assay [1] [nM] | IC50, eotaxin release from NHLF [1] [nM] | IC50, HDLM-2 cell proliferation assay [2] [nM] | Substance
1 | 1.02 | 0.219 | 16.7 | B-B13 (commercial anti-human IL-13 antibody, mouse IgG1, Euroclone)
2 | 0.471 | 0.623 | 10.7 | JES10-5A2 (commercial anti-human IL-13 antibody, rat IgG1, Biosource)
